Publication PMC6684798, “Structural basis for the target specificity of actin histidine methyltransferase SETD3” (Nature Communications, 2019)
Like-named read-outs stand apart in the source and are kept apart here.

Experiments:
[1] = biological target: T1, SETD3 (Homo sapiens, UniProt Q86TU7); experiment: Ki measurement of sinefungin against SAM for SETD3 (Supplementary Fig. 2a, b); type: biochemical
T1 construct: GST (cleaved yes); made in house; host or cells: Escherichia coli BL21(DE3) CodonPlus
T1 sequence (Q86TU7 1-594): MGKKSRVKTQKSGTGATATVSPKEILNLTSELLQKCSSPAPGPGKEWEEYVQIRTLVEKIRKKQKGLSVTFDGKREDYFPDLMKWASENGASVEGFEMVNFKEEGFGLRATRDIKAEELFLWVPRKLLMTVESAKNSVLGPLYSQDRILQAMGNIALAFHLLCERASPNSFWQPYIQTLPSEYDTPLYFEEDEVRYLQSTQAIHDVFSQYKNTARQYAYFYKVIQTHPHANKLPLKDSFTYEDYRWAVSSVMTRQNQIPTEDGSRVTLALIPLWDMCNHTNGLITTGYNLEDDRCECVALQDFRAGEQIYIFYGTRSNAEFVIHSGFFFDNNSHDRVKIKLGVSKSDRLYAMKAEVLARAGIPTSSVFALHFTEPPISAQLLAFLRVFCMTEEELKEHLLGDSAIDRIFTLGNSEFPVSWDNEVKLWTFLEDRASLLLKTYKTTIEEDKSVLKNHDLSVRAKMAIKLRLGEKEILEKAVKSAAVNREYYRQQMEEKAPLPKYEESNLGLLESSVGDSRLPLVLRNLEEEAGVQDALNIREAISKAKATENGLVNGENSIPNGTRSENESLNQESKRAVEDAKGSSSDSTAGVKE
Protocol: Recombinant human SETD3 (pXC2003) was expressed as a GST-fusion[22] in Escherichia coli BL21(DE3) CodonPlus^TM cells (Stratagene). The SETD3 mutants at residue 255 (N255A; pXC2093 and N255V; pXC2094) were generated with Q5 Site-Directed Mutagenesis Kit (New England Biolabs), confirmed by sequencing and the same protocol for expression and purification were followed. Briefly, the purification was conducted in a BIO-RAD NGC^TM system using a three-column chromatography of glutathione-sepharose, HiTrap Q-HP and Superdex 200. The GST tag was removed by PreScisson Protease (purified in-house). The purified SETD3 proteins at a concentration ~25–35 mg/ml were kept at −80 °C in storage buffer for future use [20 mM Tris (pH 8.0), 200 mM NaCl, 5% glycerol, and 0.5 mM tris (2-carboxyethyl) phosphine (TCEP)].
For Ki measurement of sinefungin (Supplementary Fig. 2a, b), a reaction mixture contained 20 mM Tris/HCl (pH 8.0), 50 mM NaCl, 0.1 mg/ml BSA, 1 mM DTT, 0.18 µM SETD3, 40 µM H73 (residues 66–80) peptide and first incubated with varied concentration of sinefungin (0–100 µM) for 30 min, reactions were then started by addition of 2–8 µM SAM. After 30 min at room temperature, the reactions were terminated by the addition of TFA to 0.1% (v/v). […]

[2] = biological target: Recombinant human SETD3 (pXC2003), wild type (human) (UniProt Q86TU7)
[3] = biological target: Recombinant human SETD3 (pXC2003), wild type (human) (UniProt Q86TU7); remark: listed apart in the source

Nc1ncnc2c1ncn2[C@@H]1O[C@H](C[C@@H](N)CC[C@H](N)C(=O)O)[C@@H](O)[C@H]1O [sinefungin, adenosyl ornithine]
mode of inhibition of SETD3 ([1]; Lineweaver-Burk, H73(66–80) 40 µM, 0–100 µM sinefungin, 2–8 µM SAM, pH 8.0): SAM-competitive inhibitor | support of methyl transfer / inhibition ([1]; Supplementary Fig. 2): does not support the methyl transfer, and thus functions as an inhibitor

actin H73K peptide (residues 66-88) (from UniProt P60709 66-88)
Km of steady-state methylation kinetics (MTase-Glo), pH 10.5, 37 °C [2]: 5.2 μM

actin H73 peptide (residues 66-80) (from UniProt P60709 66-80)
Km of steady-state methylation kinetics (MTase-Glo), pH 8.0, room temperature [3]: 21 μM

actin H73K peptide (residues 66-80) (from UniProt P60709 66-80)
Km of steady-state methylation kinetics (MTase-Glo), pH 10.5, 37 °C [3]: 430 μM
